B1: SEQ ID NO 243 (designed binder, not shown: small tags and cut ends)
chain: MLPAPKNLVVSRVTEDSARLSWTAPDAAFDSFFIGYLEPQPPGEAIHLAVPGSERSYDLTGLKPGTEYNVTIQGVKGGFPSVPLAAVFTT
B2: SEQ ID NO 203 (designed binder, not shown: small tags and cut ends)
chain: B1 chain with H47V, A49L, V87F
B3: SEQ ID NO 235 (designed binder, not shown: small tags and cut ends)
chain: B1 chain with H47Q, A49T, V82L, A85S, V87D
B4: SEQ ID NO 222 (designed binder, not shown: small tags and cut ends)
chain: B1 chain with H47V, A49D, V82H, V87A
B5: SEQ ID NO 231 (designed binder, not shown: small tags and cut ends)
chain: B1 chain with A49Y, V82D, A85D
B6: SEQ ID NO 223 (designed binder, not shown: small tags and cut ends)
chain: B1 chain with H47G, A85Q, V87N
B7: SEQ ID NO 210 (designed binder, not shown: small tags and cut ends)
chain: B1 chain with H47N, A49Q, V82F, A85S
B8: SEQ ID NO 208 (designed binder, not shown: small tags and cut ends)
chain: B1 chain with H47V, V82Y, A85V, V87A
B9: SEQ ID NO 251 (designed binder, not shown: small tags and cut ends)
chain: B1 chain with H47G, A49W, V82D, A85Q
B10: SEQ ID NO 205 (designed binder, not shown: small tags and cut ends)
chain: MLPAPKNLVVSRVTEDSARLSWTAPDAAFDSFFIGYLEPQPPGEAILLGVPGSERSYDLTGLKPGTEYNVTIQGVKGGFPSMPLHPLVALFTT
B11: SEQ ID NO 216 (designed binder, not shown: small tags and cut ends)
chain: MLPAPKNLVVSRVTEDSARLSWTAPDAAFDSFYIAYAEPRPDGEAISLSVPGSERSYDLTGLKPGTEYSVLIHGVKGGLLSSPPKFTT
B12: SEQ ID NO 238 (designed binder, not shown: small tags and cut ends)
chain: B11 chain with A24T, S47R, S49Q, P84L, K85G
B13: SEQ ID NO 204 (designed binder, not shown: small tags and cut ends)
chain: MLPAPKNLVVSRVTEDSARLSWTAPDAAFDSFFIGYLEPQPPGEAILLWVPGSERSYDLTGLKPGTEYNVTIQGVKGGFPSQFTT
B14: SEQ ID NO 232 (designed binder, not shown: small tags and cut ends)
chain: B13 chain with L47Y, W49D, Q82T
B15: SEQ ID NO 269 (designed binder, not shown: small tags and cut ends)
chain: MLPAPKNLVVSRVTEDSARLSWTAPDAAFDSFYIAYAEPRPDGEAIWLDVPGSERSYDLTGLKPGTEYSVLIHGVKGGLLSSPLDAYFTT
B16: SEQ ID NO 221 (designed binder, not shown: small tags and cut ends)
chain: MLPAPKNLVVSRVTEDSARLSWTAPDAAFDSFFIGYLEPQPPGEAIFLDVPGSERSYDLTGLKPGTEYNVTIQGVKGGFPSPLTAFFTT
B17: SEQ ID NO 213 (designed binder, not shown: small tags and cut ends)
chain: MLPAPKNLVVSRVTEDSARLSWTAPDAAFDSFYIAYAEPRPDGEAILLGVPGSERSYDLTGLKPGTEYSVLIHGVKGGLLSSPLFTT
B18: SEQ ID NO 268 (designed binder, not shown: small tags and cut ends)
chain: B17 chain with L47Y, G49E
B19: SEQ ID NO 270 (designed binder, not shown: small tags and cut ends)
chain: MLPAPKNLVVSRVTEDSARLSWTAPDAAFDSFAIEYCETKMCGEAIVLTVPGSERSYDLTGLKPGTEYRVPIPGVKGGTASLPLSAIFTT
B20: ABX1100 (designed binder)
chain: B15 chain with W47L, D49Q, E54C, D85T, Y87I
modifications: siRNA pair with linker (attachment residue not stated for this molecule)
notes: FN3 domain-siRNA conjugate; also called CD71 FN3 domain siRNA conjugate

Substitutions are numbered along the chain they refer to.

In the first assay the target is T1, CD71 apical domain (human, UniProt P02786 189-383, limits assumed).
T1 construct: domain: apical domain
T1 sequence (P02786 189-383 limits assumed): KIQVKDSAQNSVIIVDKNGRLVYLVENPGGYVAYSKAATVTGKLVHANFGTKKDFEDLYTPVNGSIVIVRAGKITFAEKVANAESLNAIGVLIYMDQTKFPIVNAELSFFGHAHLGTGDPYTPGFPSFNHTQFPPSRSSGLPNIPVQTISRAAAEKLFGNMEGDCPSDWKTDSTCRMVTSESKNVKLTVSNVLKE
As to the kind of experiment: solution ELISA screen, signal ratio to HSA control.
As for B1, the “apical domain:HSA” value was 103 ratio.
For B2, the “apical domain:HSA” value turned out to be 219 ratio.
Consider B3, for which the “apical domain:HSA” value was 70.1 ratio.
On to B4, for which the “apical domain:HSA” value stood at 69 ratio.
For the molecule B5, the “apical domain:HSA” value came to 331 ratio.
On the same count and under the same terms, as for B6, the figure is 197 ratio; as for B7, 85 ratio.
For the molecule B8, the “apical domain:HSA” value was 226 ratio.
Regarding B9, the “apical domain:HSA” value turned out to be 220 ratio.
For B10, the “apical domain:HSA” value is 1 ratio.
Same read-out and setting: as for B11, the figure is 0.7 ratio.
Same read-out and setting: as for B12, the figure is 1.1 ratio; as for B13, 317 ratio; as for B14, 1.3 ratio.
For the molecule B15, the “apical domain:HSA” value was 279 ratio.
Take B16: the “apical domain:HSA” value was determined as 0.5 ratio.
As for B17, the “apical domain:HSA” value is 28.9 ratio.
With B18, the “apical domain:HSA” value was found to be 0.8 ratio.
For the molecule B19, the “apical domain:HSA” value worked out at 101 ratio.

In another assay the target is T2, human CD71 extracellular domain (human, UniProt P02786 89-760, biotinylated).
T2 construct: extracellular domain; also called hCD71; huCD71 ECD
T2 sequence (P02786 other isoform, or with tags, fused parts or gaps): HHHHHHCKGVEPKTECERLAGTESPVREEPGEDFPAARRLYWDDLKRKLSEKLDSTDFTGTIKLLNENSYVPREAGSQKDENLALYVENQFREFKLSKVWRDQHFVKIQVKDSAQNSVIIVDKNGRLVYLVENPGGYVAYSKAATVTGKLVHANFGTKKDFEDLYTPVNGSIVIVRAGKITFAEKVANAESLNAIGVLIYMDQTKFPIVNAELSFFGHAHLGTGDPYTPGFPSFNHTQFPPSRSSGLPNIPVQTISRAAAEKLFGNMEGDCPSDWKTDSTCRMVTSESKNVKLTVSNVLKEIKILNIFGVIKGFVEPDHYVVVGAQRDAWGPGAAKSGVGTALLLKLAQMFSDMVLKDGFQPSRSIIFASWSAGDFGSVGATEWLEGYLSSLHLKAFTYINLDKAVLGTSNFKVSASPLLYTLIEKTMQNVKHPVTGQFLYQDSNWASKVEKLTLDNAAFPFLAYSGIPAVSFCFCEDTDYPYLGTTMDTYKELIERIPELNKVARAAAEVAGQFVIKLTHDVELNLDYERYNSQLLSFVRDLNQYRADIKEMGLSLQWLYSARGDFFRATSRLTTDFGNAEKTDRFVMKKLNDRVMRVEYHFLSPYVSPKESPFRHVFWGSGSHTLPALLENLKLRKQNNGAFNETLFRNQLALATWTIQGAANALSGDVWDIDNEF
Description: solution ELISA screen, signal ratio to HSA control.
Turning to B1, the “hCD71:HSA” value was determined as 63.8 ratio.
For B2, the “hCD71:HSA” value came to 91.6 ratio.
For B3, the “hCD71:HSA” value was determined as 39.5 ratio.
Turning to B4, the “hCD71:HSA” value was found to be 94.5 ratio.
Regarding B5, the “hCD71:HSA” value came to 112 ratio.
With B6, the “hCD71:HSA” value turned out to be 105 ratio.
Turning to B7, the “hCD71:HSA” value amounted to 49.7 ratio.
In the case of B8, the “hCD71:HSA” value turned out to be 184 ratio.
For the molecule B9, the “hCD71:HSA” value was 96.1 ratio.
Consider B10, for which the “hCD71:HSA” value stood at 18.1 ratio.
For the molecule B11, the “hCD71:HSA” value turned out to be 21.6 ratio.
As to B12, the “hCD71:HSA” value is 31 ratio.
For the molecule B13, the “hCD71:HSA” value stood at 164 ratio.
In the case of B14, the “hCD71:HSA” value came out at 14.3 ratio.
B15: the “hCD71:HSA” value turned out to be 40.8 ratio.
B16: the “hCD71:HSA” value worked out at 16.4 ratio.
Turning to B17, the “hCD71:HSA” value is 24.6 ratio.
As for B18, the “hCD71:HSA” value amounted to 23.6 ratio.
The same measure, in the same setting: under B19 stands 51.6 ratio.

The target in another assay is T3, human CD71 on cells (human, UniProt P02786 1-760).
T3 construct: whole, on cells; also called the receptor
T3 sequence (P02786 whole entry): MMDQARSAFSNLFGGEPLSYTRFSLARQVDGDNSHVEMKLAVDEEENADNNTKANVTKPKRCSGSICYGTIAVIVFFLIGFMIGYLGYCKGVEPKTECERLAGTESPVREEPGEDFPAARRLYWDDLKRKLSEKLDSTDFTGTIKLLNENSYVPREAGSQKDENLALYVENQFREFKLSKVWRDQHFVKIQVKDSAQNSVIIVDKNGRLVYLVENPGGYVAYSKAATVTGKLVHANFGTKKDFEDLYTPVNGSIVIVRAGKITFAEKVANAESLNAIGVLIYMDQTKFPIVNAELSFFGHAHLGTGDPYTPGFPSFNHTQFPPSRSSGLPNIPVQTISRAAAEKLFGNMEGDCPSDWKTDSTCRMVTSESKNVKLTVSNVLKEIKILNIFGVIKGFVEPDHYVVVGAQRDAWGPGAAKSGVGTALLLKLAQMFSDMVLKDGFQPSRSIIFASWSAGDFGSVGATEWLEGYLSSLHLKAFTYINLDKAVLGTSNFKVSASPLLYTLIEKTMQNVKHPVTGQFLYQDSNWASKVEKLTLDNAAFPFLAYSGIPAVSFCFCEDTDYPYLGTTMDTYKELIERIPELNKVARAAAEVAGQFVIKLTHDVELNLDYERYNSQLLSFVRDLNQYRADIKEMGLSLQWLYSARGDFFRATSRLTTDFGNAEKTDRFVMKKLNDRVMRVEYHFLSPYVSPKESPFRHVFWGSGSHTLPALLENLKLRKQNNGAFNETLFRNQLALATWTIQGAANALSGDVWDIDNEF
Description: Membrane Proteome Array, flow cytometry on QT6 cells.
With B20, the binding result is listed as “binds”.

In the next assay the target is T1, CD71 apical domain. Description: solution ELISA screen (luminescence).
In the case of B1, the RLU was found to be 3.19e+06 RLU.
Molecule B2 had an RLU of 5.69e+06 RLU.
Regarding B3, the RLU was 1.67e+06 RLU.
Molecule B4 returned an RLU of 1.07e+06 RLU.
Molecule B5 displayed an RLU of 6.83e+06 RLU.
The molecule B6 registered an RLU of 3.6e+06 RLU.
Turning to B7, the RLU came to 4.12e+06 RLU.
In the case of B8, the RLU was found to be 3.7e+06 RLU.
Molecule B9 showed an RLU of 5.73e+06 RLU.
In the case of B10, the RLU was found to be 150000 RLU.
The same measure, in the same setting: under B11 stands 142000 RLU; under B12, 112000 RLU.
On the same count and under the same terms, as for B13, the figure is 6.35e+06 RLU; as for B14, 95400 RLU.
In turn, B15 had an RLU of 5.56e+06 RLU.
Molecule B16 returned an RLU of 31800 RLU.
In the case of B17, the RLU worked out at 2.03e+06 RLU.
Regarding B18, the RLU was determined as 94800 RLU.
B19: the RLU came to 6.49e+06 RLU.

For a further assay, the target named is T2, human CD71 extracellular domain. Description: solution ELISA screen (luminescence). Background: In an ELISA, binding on a coated surface is turned into a signal by an enzyme label.
B1 registered an RLU of 1.97e+06 RLU.
For the molecule B2, the RLU was found to be 2.38e+06 RLU.
For B3, the RLU was 943000 RLU.
As to B4, the RLU was found to be 1.47e+06 RLU.
Take B5: the RLU was determined as 2.32e+06 RLU.
Regarding B6, the RLU amounted to 1.93e+06 RLU.
The same measure, in the same setting: under B7 stands 2.41e+06 RLU; under B8, 3e+06 RLU.
B9 yielded an RLU of 2.51e+06 RLU.
Molecule B10 came in with an RLU of 2.81e+06 RLU.
The same measure, in the same setting: under B11 stands 4.15e+06 RLU.
Consider B12, for which the RLU amounted to 3.07e+06 RLU.
Molecule B13 registered an RLU of 3.29e+06 RLU.
Molecule B14 displayed an RLU of 1.08e+06 RLU.
Still for that read-out and setting: as for B15, the figure is 812000 RLU; as for B16, 966000 RLU.
Same read-out and setting: as for B17, the figure is 1.73e+06 RLU; as for B18, 2.77e+06 RLU.
Molecule B19 had an RLU of 3.32e+06 RLU.

Source of the values: patent US20220332795A1 (ARO BIOTHERAPEUTICS, published 2022).
